PMC8501605

Target: T1, pseudokinase mixed lineage kinase domain-like (MLKL) (human (endogenous in post-mortem hippocampus)), Q8NB16
T1 chain: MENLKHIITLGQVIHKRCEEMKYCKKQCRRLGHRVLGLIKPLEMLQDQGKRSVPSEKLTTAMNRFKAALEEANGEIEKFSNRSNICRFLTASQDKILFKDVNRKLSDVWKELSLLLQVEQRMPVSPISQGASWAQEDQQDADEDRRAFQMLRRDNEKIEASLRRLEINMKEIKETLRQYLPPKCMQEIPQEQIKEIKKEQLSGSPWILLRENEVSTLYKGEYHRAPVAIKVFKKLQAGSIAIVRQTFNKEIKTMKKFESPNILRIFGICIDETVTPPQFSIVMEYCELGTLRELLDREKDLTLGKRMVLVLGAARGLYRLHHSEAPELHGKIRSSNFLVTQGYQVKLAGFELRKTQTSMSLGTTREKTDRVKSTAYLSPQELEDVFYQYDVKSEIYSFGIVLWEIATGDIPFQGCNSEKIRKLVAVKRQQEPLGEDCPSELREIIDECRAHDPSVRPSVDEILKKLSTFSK
Assay: non-reducing gel and western blot; hippocampal grey matter extracted in native conditions (TBS, 0.1% Triton X-100), run on 7.5% gel in non-reducing conditions, blot for MLKL; AD (n = 14) and control (n = 8) cases
Conditions: remark: other sources report otherwise

B1: pseudokinase mixed lineage kinase domain-like (MLKL), Q8NB16 1-471 (natural protein)
chain: MENLKHIITLGQVIHKRCEEMKYCKKQCRRLGHRVLGLIKPLEMLQDQGKRSVPSEKLTTAMNRFKAALEEANGEIEKFSNRSNICRFLTASQDKILFKDVNRKLSDVWKELSLLLQVEQRMPVSPISQGASWAQEDQQDADEDRRAFQMLRRDNEKIEASLRRLEINMKEIKETLRQYLPPKCMQEIPQEQIKEIKKEQLSGSPWILLRENEVSTLYKGEYHRAPVAIKVFKKLQAGSIAIVRQTFNKEIKTMKKFESPNILRIFGICIDETVTPPQFSIVMEYCELGTLRELLDREKDLTLGKRMVLVLGAARGLYRLHHSEAPELHGKIRSSNFLVTQGYQVKLAGFELRKTQTSMSLGTTREKTDRVKSTAYLSPQELEDVFYQYDVKSEIYSFGIVLWEIATGDIPFQGCNSEKIRKLVAVKRQQEPLGEDCPSELREIIDECRAHDPSVRPSVDEILKKLSTFSK
B1 showed a stoichiometry N of 4.
